Data published in patent US20130171235A1.

Target: PTEN-long (endogenous human form, translated from the upstream CUG start site of PTEN mRNA) (Homo sapiens)
Assay: concanavalin A sepharose pulldown from HEK293 lysate, immunoblot

## concanavalin A (lectin, on sepharose) (from UniProt P02866)
  share of PTEN-long in the PTEN pulled down: 50%
